US20250215098A1 (QYUNS THERAPEUTICS, published 2025)

T1: human IL-36R on HT29 cells, HT29 reporter gene cells, A431 cells and human PBMC (human, UniProt Q9HB29 20-575)
T1 sequence (looked up): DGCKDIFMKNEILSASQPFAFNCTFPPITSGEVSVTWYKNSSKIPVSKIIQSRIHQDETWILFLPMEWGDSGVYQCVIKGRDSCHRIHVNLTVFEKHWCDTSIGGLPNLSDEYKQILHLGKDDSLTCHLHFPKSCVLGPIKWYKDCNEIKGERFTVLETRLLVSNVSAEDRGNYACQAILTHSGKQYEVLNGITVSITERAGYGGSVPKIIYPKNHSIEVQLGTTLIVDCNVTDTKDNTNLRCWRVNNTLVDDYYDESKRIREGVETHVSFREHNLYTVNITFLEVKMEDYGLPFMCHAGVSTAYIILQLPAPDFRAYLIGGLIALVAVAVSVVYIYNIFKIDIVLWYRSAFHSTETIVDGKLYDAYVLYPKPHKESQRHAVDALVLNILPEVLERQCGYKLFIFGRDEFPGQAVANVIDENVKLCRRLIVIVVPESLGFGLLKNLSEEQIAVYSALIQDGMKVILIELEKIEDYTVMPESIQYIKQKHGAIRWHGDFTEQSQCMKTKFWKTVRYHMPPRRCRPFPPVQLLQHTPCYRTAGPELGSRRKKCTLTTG


Target: T1, human IL-36R on HT29 cells, HT29 …
Experiment: cell-based or functional assay

IC50 in inhibiting CXCL-1 release from A431 cells induced by the human IL-36 (α, β, γ) [ng/mL]	IC50 in inhibiting CXCL-1 release from HT29 cells induced by the human IL-36 (α, β, γ) [ng/mL]	IC50 in inhibiting IL-8 release from A431 cells induced by the human IL-36 (α, β, γ) [ng/mL]	IC50 in inhibiting IL-8 release from HT29 cells induced by the human IL-36 (α, β, γ) [ng/mL]	IC50 in inhibiting IL-8 release from human PBMC cells induced by the human IL-36β [ng/mL]	IC50 in inhibiting STAT3 phosphorylation in HT29 reporter cells induced by human IL-36 (α, β, γ) [ng/mL]	Binder
4.12	2.21	2.89	1.53	4.69	2.16	QX009N (HZD25-54) (antibody, human IgG1, kappa, L234A L235A, V domains shown) VH: EVQLVESGGGLVQPGGSLRLSCAASGIDLSNYAMGWVRQAPGKGLEWVGYISGGGSAYYASWAKGRFTISRDNSKNTLYLQMNSLRAEDTAVYYCARWAIKSYFFGMDLWGQGTLVTVSS VL: DIQMTQSPSSVSASVGDRVTITCQASEYISSYLAWYQQKPGKAPKLLIYQASTLASGVPSRFSGSGSGTDFTLTISSLQPEDFATYYCQTNNAIHTYGGAFGGGTKVEIKR
12.3	12.3	11.5	11.5	26.6	15.7	Spesolimab (expressed from the B6 sequence of patent US9023995B2) (antibody, V domains shown) VH: QVQLVQSGAEVKKPGASVKVSCKASGYSFTSSWIHWVKQAPGQGLEWMGEINPGNVRTNYNENFRNKVTMTVDTSISTAYMELSRLRSDDTAVYYCTVVFYGEPYFPYWGQGTLVTVSS VL: QIVLTQSPGTLSLSPGERATMTCTASSSVSSSYFHWYQQKPGQAPRLWIYRTSRLASGVPDRFSGSGSGTDFTLTISRLEPEDAATYYCHQFHRSPLTFGAGTKLEIK
